Assay results as given in paper PMC4631838, “Molecular architecture of the yeast Mediator complex” (eLife, 2015).

How the values were obtained:
[1] = target: T1, Med5 (Nut1), Mediator Tail module subunit (S. cerevisiae, UniProt P53114 1-1132); assay: cross-linking; BS3 (unlabeled, or 50:50 with 2H12-labeled BS3) on the purified native holoenzyme; 150 mM NaPO4, 150 mM KOAc, pH 7.5, 5% glycerol, 2 mM DTT; procedure A 2.7 mM reagent 120 min on ice; trypsin digest, LC-MS/MS, Protein Prospector; details: both partners purified
T1 construct: Med5 (Nut1), S. cerevisiae, endogenous; source: endogenous, S. cerevisiae CB010 double-tagged strain; within the purified native holoenzyme
T1 sequence (looked up): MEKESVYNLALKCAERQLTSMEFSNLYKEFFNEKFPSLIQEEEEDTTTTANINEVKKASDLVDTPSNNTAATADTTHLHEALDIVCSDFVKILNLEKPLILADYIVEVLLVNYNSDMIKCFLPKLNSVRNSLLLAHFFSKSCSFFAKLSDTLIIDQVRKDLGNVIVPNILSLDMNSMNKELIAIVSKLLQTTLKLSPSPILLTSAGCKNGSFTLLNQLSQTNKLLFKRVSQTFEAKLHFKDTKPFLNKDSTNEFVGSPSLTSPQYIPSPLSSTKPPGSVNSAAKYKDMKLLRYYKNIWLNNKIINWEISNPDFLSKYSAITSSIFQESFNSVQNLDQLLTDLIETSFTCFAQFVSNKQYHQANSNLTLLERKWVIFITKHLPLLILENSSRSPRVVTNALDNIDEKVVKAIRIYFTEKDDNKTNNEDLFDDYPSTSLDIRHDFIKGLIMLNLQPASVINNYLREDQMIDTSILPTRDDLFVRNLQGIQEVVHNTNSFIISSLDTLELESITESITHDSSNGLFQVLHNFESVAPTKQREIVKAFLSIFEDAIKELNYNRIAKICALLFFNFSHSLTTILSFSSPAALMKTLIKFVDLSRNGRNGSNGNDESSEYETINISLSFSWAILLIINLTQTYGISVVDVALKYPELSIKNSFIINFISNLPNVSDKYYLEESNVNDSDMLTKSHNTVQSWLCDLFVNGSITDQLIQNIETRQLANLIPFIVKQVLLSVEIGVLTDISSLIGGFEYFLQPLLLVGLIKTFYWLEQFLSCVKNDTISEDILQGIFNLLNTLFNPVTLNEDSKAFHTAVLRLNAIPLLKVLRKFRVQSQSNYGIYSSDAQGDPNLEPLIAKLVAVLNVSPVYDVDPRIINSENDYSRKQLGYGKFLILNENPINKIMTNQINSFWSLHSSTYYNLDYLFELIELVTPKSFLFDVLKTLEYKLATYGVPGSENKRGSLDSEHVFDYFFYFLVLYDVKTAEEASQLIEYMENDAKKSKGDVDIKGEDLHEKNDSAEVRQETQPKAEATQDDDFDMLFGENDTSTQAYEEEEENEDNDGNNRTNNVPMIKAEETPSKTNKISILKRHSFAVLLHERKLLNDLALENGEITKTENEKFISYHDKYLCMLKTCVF

[2] = target: T2, Med15 (Gal11), Mediator Tail module subunit (S. cerevisiae, UniProt P19659 1-1081); assay: as above; details: both partners purified
T2 construct: Med15 (Gal11), S. cerevisiae, endogenous; source: endogenous, S. cerevisiae CB010 double-tagged strain; within the purified native holoenzyme
T2 sequence (looked up): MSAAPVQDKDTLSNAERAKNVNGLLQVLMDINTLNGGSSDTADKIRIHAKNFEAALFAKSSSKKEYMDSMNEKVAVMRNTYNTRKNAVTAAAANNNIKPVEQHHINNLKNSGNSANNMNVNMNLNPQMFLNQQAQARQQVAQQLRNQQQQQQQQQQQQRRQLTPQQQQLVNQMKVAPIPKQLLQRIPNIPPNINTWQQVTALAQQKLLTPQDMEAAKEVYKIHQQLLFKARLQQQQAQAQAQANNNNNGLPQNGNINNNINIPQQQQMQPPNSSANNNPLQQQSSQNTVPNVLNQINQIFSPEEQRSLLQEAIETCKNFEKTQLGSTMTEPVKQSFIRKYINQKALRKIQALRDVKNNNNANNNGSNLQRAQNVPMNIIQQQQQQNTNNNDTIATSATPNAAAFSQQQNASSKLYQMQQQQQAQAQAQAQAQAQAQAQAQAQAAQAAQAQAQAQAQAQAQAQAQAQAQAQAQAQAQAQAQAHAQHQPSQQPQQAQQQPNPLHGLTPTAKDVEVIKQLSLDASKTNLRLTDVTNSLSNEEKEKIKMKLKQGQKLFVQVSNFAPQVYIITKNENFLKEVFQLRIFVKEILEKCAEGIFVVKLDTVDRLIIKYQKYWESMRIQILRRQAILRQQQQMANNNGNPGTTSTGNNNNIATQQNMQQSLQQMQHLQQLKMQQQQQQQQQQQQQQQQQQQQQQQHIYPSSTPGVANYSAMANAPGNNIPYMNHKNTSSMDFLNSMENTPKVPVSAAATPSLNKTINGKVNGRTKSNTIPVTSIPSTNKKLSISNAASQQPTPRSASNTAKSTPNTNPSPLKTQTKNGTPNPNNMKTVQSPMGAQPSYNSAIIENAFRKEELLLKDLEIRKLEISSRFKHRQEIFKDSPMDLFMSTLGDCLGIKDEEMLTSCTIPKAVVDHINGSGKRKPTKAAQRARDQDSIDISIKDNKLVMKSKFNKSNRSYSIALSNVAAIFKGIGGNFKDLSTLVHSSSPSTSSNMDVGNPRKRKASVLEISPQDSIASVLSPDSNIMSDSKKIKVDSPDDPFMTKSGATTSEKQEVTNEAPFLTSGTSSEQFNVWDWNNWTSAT

B1: Med16 (Sin4), Mediator Tail module subunit (natural protein, S. cerevisiae, UniProt P32259 1-974, looked up)
chain: MMLGEHLMSWSKTGIIAYSDSQSSNANICLTFLESINGINWRFHTPQKYVLHPQLHEVQYQESSSTLSTHSTTTSVNGSTTAGVGSTPNFGGNSNKSPPQFFYNISSIHWNNWFSLPGDMLAVCDELGNMTMLITGQRPDRATTYEKLTMVFQDNVYKIYNHVMPLKPVDKLKPMNIERKQTRKEYNTSILEFRWLTSSKSVIVSQFCAFDSSSNTYRSRAQQVPPYGVYHPPFIKYACLAIRKNGQIDFWYQFSNSKDHKKITLQLLDTSNQRFKDLQWLEFARITPMNDDQCMLITTYSKLSKNISFYKLHVNWNLNATKPNVLNDPSLKIQFILSTTLDPTDDEGHVLKLENLHVVSKSSIEKDPSPEILVLYNVCDTSKSLVKRYRLAPTQLSAEYLVILKPDLNIDRNNSTNQIFQSRRYNLRRHSDIVLDKKVTLITSEMFDAFVSFYFEDGTIESYNQNDWKLETERLISQSQLGKFKNIIASPLSAGFNYGKLPLPPSVEWMKVSPSMCGVIVKQYNKKWPQFYAAVQKNYADPEKDSINATALAFGYVKSLHKQISAEDLTIAAKTHILRISFLDRKRAKEFITTLLKSLYSFFNISPDAPKEIMDKIITSRPLQKIMLLQLELGSCFSQENIEEMARVILYLKNVLFAFNGVARNFHFAIEQISNNSNQQQNPKLFQTIFSKQDLIHSLIPVAKWFVKFITYLTQEILILINDPTNKEYTLVHGIFGAKMSRTLILSILNEIKKVTQIVAKFPETSYPILNESSTFLKLVLSESPVDFEKFETFLVDVNNKFIALCEQQPSQEREFSLLVKAEIPPEYAKVGDFLLQYANNAVISHANAAAVYFADTSGLKISNSEFFNPEIFHLLQPLEEGLIIDTDKLPIKNRTSKSFSKLLYDDVTCDKLSVSEISDGKLKRCSRCGSVTRAGNIISSDKTIVPTSIQTKRWPTMYTRLCICSGMLFEMDG
notes: Med16 (Sin4), S. cerevisiae, endogenous; source: endogenous, S. cerevisiae CB010 double-tagged strain; within the purified native holoenzyme
**Q.** Does B1 bind [1]?
**A.** Result: binds

**Q.** Does B1 bind [2]?
**A.** Result: binds
